The source of these data is PMC2365708, “Binding of MutS protein to oligonucleotides containing a methylated or an ethylated guanine residue, and correlation with mutation frequency”.

A word on the Kd: it is the concentration at which binding is half-saturated.

This series deals with T1, MutS (Escherichia coli, UniProt P23909 1-853).
T1 sequence: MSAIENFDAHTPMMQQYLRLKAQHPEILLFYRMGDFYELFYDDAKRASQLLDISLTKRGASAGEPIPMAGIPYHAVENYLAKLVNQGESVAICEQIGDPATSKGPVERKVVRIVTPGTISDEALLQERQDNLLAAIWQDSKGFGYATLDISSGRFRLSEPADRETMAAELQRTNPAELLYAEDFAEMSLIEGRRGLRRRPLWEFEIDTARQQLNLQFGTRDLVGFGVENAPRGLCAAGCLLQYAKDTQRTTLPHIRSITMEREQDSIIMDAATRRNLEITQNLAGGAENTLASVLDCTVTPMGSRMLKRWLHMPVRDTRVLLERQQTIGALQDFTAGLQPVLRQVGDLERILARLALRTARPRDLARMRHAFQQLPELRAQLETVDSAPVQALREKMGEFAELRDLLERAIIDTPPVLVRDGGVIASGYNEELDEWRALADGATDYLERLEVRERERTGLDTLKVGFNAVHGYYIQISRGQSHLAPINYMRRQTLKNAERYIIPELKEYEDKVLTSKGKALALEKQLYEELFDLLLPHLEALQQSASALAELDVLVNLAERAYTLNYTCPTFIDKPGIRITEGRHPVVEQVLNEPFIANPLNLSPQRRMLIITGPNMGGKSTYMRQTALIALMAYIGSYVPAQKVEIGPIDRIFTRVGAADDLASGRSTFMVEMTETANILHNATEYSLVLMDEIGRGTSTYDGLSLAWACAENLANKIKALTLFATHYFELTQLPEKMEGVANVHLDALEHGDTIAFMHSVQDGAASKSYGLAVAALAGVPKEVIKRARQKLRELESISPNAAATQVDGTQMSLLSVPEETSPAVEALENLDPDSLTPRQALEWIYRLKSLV
Nature of the series: EMSA; 5 mM Mg2+; 20 pmol unlabeled GC duplex; 20 mM Tris-HCl pH 7.6, 50 mM KCl, 5 mM MgCl2, 1 mM DTT, 0.05 mg/ml BSA, 37 °C 15 min, 20 μl, 2 pmol labeled duplex, 20 pmol unlabeled GC duplex, 5% native PAGE. The conditions noted are these: protein: recombinant, tags: His6, chain copies: 2, label: 5'-32P (KN-2 or KN-3 strand). (Mobility shift assays separate free from complexed probe on a gel.)

B1: O6-MeG:T duplex (dsDNA)
DNA 1: GGTCGCTGGGGAATGGGAGTGGCCACGGCG
DNA 2: CGCCGTGGCCACTCTCATTCCCCAGCGACC
modifications: O6-methylguanine opposite T
For the molecule B1, the Kd (O6-MeG:T pair) was determined as 120 nM.

B2: O6-EtG:C duplex (dsDNA)
DNA 1: GGTCGCTGGGGAATGGGAGTGGCCACGGCG
DNA 2: CGCCGTGGCCACTCCCATTCCCCAGCGACC
modifications: O6-ethylguanine opposite C
In the case of B2, for the setting “O6-EtG:C pair”, the Kd turned out to be 220 nM.

B3: O6-MeG:C duplex (dsDNA)
DNA 1: GGTCGCTGGGGAATGGGAGTGGCCACGGCG
DNA 2: CGCCGTGGCCACTCCCATTCCCCAGCGACC
modifications: O6-methylguanine opposite C
As for B3, the Kd (O6-MeG:C pair) amounted to 220 nM.

B4: O6-EtG:T duplex (dsDNA)
DNA 1: GGTCGCTGGGGAATGGGAGTGGCCACGGCG
DNA 2: CGCCGTGGCCACTCTCATTCCCCAGCGACC
modifications: O6-ethylguanine opposite T
Take B4: the Kd (O6-EtG:T pair) came to 210 nM.

B5: G:T duplex (dsDNA)
DNA 1: GGTCGCTGGGGAATGGGAGTGGCCACGGCG
DNA 2: CGCCGTGGCCACTCTCATTCCCCAGCGACC
As for B5, the Kd (G:T mismatch) was 75 nM.
